# Measurements taken from the supplement of paper PMC9112550, “Optimization of the antimicrobial peptide Bac7 by deep mutational scanning” (BMC Biology, 2022).
# Tested on: Escherichia coli TOP10
# Test: shrunken log2 fold change of peptide-encoding DNA abundance (4.5 h post-induction vs induction); higher = less antimicrobial activity (less host growth inhibition)
# Conditions: time post-induction: 4.5 h; library: site-saturation at positions 5, 18, 19, 20
# 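Note: peptides expressed intracellularly from a pBAD plasmid library in pooled LB shake-flask culture, induced with 0.3% L-arabinose, DNA abundance read by NGS, three biological replicates, DESeq2 with apeglm shrinkage.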
row,Sequence,shrunken log2 fold change
1,RRIRWRPPRLPRPRPRPAFQPRP,0.62
2,RRIRTRPPRLPRPRPRPIIPPRP,-0.279
3,RRIRIRPPRLPRPRPRPSRFPRP,-0.278
4,RRIRMRPPRLPRPRPRPVIAPRP,0.125
5,RRIRDRPPRLPRPRPRPAMMPRP,-0.0512
6,RRIRKRPPRLPRPRPRPQATPRP,0.0984
7,RRIRARPPRLPRPRPRPNNQPRP,-0.309
8,RRIRPRPPRLPRPRPRPAALPRP,0.248
9,RRIRCRPPRLPRPRPRPIYLPRP,-0.457
10,RRIRTRPPRLPRPRPRPCNEPRP,-0.173
11,RRIRVRPPRLPRPRPRPPYEPRP,-0.0422
12,RRIRWRPPRLPRPRPRPPHPPRP,0.373
13,RRIRGRPPRLPRPRPRPKVTPRP,0.29
14,RRIRFRPPRLPRPRPRPMHPPRP,-0.082
15,RRIRQRPPRLPRPRPRPLIRPRP,-0.966
16,RRIRERPPRLPRPRPRPACYPRP,-0.308
17,RRIRHRPPRLPRPRPRPSHHPRP,-0.267
18,RRIRERPPRLPRPRPRPKNVPRP,0.0204
19,RRIRERPPRLPRPRPRPAQMPRP,0.392
20,RRIRVRPPRLPRPRPRPDICPRP,0.221
21,RRIRVRPPRLPRPRPRPHLMPRP,-0.36
22,RRIRNRPPRLPRPRPRPQQWPRP,-0.0346
23,RRIRWRPPRLPRPRPRPPVHPRP,-0.221
24,RRIRDRPPRLPRPRPRPASHPRP,0.0378
25,RRIRGRPPRLPRPRPRPLARPRP,0.91

row,Sequence,shrunken log2 fold change
1,RRIRRRPPRLPRPRPRPHESPRP,0.0784
2,RRIRRRPPRLPRPRPRPQQMPRP,0.12
3,RRIRARPPRLPRPRPRPRKPPRP,0.114
4,RRIRIRPPRLPRPRPRPIIEPRP,-0.0807
5,RRIRWRPPRLPRPRPRPVDLPRP,-0.107
6,RRIRTRPPRLPRPRPRPQGVPRP,-0.0062
7,RRIRRRPPRLPRPRPRPHSEPRP,0.0888
8,RRIRNRPPRLPRPRPRPEQMPRP,-0.0261
9,RRIRMRPPRLPRPRPRPCWLPRP,-0.0281
10,RRIRNRPPRLPRPRPRPWAYPRP,-0.0322
11,RRIRIRPPRLPRPRPRPQNHPRP,-0.871
12,RRIRGRPPRLPRPRPRPKRNPRP,0.624
13,RRIRSRPPRLPRPRPRPYGTPRP,-0.196
14,RRIRKRPPRLPRPRPRPLQKPRP,-0.0368
15,RRIRFRPPRLPRPRPRPLLKPRP,-0.321
16,RRIRSRPPRLPRPRPRPQNVPRP,-0.209
17,RRIRTRPPRLPRPRPRPPPTPRP,0.828
18,RRIRFRPPRLPRPRPRPHIMPRP,-0.709
19,RRIRLRPPRLPRPRPRPNHGPRP,-0.17
20,RRIRFRPPRLPRPRPRPDMEPRP,-0.16
21,RRIRHRPPRLPRPRPRPFHLPRP,-0.438
22,RRIRQRPPRLPRPRPRPAFWPRP,0.382
23,RRIRLRPPRLPRPRPRPCDNPRP,-0.161
24,RRIRPRPPRLPRPRPRPHQYPRP,-0.623
25,RRIRDRPPRLPRPRPRPGVMPRP,0.521

row,Sequence,shrunken log2 fold change
1,RRIRPRPPRLPRPRPRPVWEPRP,-0.126
2,RRIRMRPPRLPRPRPRPWLCPRP,0.219
3,RRIRMRPPRLPRPRPRPPMDPRP,0.343
4,RRIRFRPPRLPRPRPRPEKDPRP,-0.227
5,RRIRIRPPRLPRPRPRPGPCPRP,0.255
6,RRIRERPPRLPRPRPRPWNYPRP,-0.00131
7,RRIRSRPPRLPRPRPRPHVGPRP,-0.0134
8,RRIRMRPPRLPRPRPRPTPTPRP,2
9,RRIRFRPPRLPRPRPRPKWFPRP,0.045
10,RRIRFRPPRLPRPRPRPITSPRP,-0.178
11,RRIRGRPPRLPRPRPRPQPAPRP,0.833
12,RRIRMRPPRLPRPRPRPVCYPRP,-0.21
13,RRIRPRPPRLPRPRPRPAVQPRP,0.168
14,RRIRERPPRLPRPRPRPGYYPRP,-0.0487
15,RRIRARPPRLPRPRPRPIGWPRP,0.488
16,RRIRFRPPRLPRPRPRPACCPRP,0.229
17,RRIRKRPPRLPRPRPRPTGLPRP,0.223
18,RRIRYRPPRLPRPRPRPCYTPRP,-0.5
19,RRIRYRPPRLPRPRPRPVPWPRP,0.277
20,RRIRPRPPRLPRPRPRPRFGPRP,0.348
21,RRIRLRPPRLPRPRPRPQQKPRP,-0.167
22,RRIRVRPPRLPRPRPRPRTEPRP,0.165
23,RRIRDRPPRLPRPRPRPDQNPRP,-0.0888
24,RRIRERPPRLPRPRPRPCDCPRP,0.00557
25,RRIRTRPPRLPRPRPRPMRNPRP,0.356

row,Sequence,shrunken log2 fold change
1,RRIRNRPPRLPRPRPRPVSNPRP,-0.00917
2,RRIRNRPPRLPRPRPRPKDEPRP,0.536
3,RRIRDRPPRLPRPRPRPWCWPRP,0.036
4,RRIRFRPPRLPRPRPRPVDMPRP,0.00603
5,RRIRCRPPRLPRPRPRPELIPRP,-0.0287
6,RRIRVRPPRLPRPRPRPFTNPRP,-0.0456
7,RRIRWRPPRLPRPRPRPMEDPRP,0.383
8,RRIRSRPPRLPRPRPRPRWRPRP,0.375
9,RRIRKRPPRLPRPRPRPKKMPRP,0.718
10,RRIRSRPPRLPRPRPRPKEEPRP,0.0302
11,RRIRNRPPRLPRPRPRPSYFPRP,-0.699
12,RRIRKRPPRLPRPRPRPKMSPRP,-0.315
13,RRIRHRPPRLPRPRPRPNFHPRP,-0.407
14,RRIRHRPPRLPRPRPRPVEMPRP,-0.0679
15,RRIRVRPPRLPRPRPRPPMKPRP,-0.117
16,RRIRSRPPRLPRPRPRPLYLPRP,-0.212
17,RRIRYRPPRLPRPRPRPGLCPRP,-0.0365
18,RRIRHRPPRLPRPRPRPNMWPRP,-0.799
19,RRIRMRPPRLPRPRPRPPMFPRP,0.225
20,RRIRMRPPRLPRPRPRPMQRPRP,0.556
21,RRIRIRPPRLPRPRPRPKFHPRP,-0.375
22,RRIRQRPPRLPRPRPRPSKPPRP,-0.231
23,RRIRKRPPRLPRPRPRPCVLPRP,0.0725
24,RRIRVRPPRLPRPRPRPCMCPRP,0.00286
25,RRIRPRPPRLPRPRPRPSDEPRP,-0.244

row,Sequence,shrunken log2 fold change
1,RRIRWRPPRLPRPRPRPYIVPRP,-0.727
2,RRIRPRPPRLPRPRPRPCNAPRP,-0.179
3,RRIRCRPPRLPRPRPRPKYLPRP,-0.34
4,RRIRDRPPRLPRPRPRPVFQPRP,-0.134
5,RRIRTRPPRLPRPRPRPEERPRP,0.12
6,RRIRTRPPRLPRPRPRPWAFPRP,-0.185
7,RRIRDRPPRLPRPRPRPEGRPRP,0.517
8,RRIRTRPPRLPRPRPRPTNMPRP,-0.409
9,RRIRSRPPRLPRPRPRPNQFPRP,-0.232
10,RRIRYRPPRLPRPRPRPESMPRP,-0.267
11,RRIRFRPPRLPRPRPRPQDRPRP,-0.591
12,RRIRTRPPRLPRPRPRPNIEPRP,0.105
13,RRIRNRPPRLPRPRPRPYVCPRP,-0.363
14,RRIRLRPPRLPRPRPRPWMYPRP,-0.0417
15,RRIRHRPPRLPRPRPRPVVGPRP,0.0224
16,RRIRYRPPRLPRPRPRPHLMPRP,-0.126
17,RRIRFRPPRLPRPRPRPVVYPRP,-0.127
18,RRIRIRPPRLPRPRPRPLYMPRP,-0.918
19,RRIRGRPPRLPRPRPRPGDNPRP,0.0889
20,RRIRCRPPRLPRPRPRPTCDPRP,0.187
21,RRIRHRPPRLPRPRPRPFPAPRP,-0.405
22,RRIRHRPPRLPRPRPRPTLKPRP,1.82
23,RRIRSRPPRLPRPRPRPWLKPRP,0.0524
24,RRIRARPPRLPRPRPRPYNVPRP,-0.284
25,RRIRARPPRLPRPRPRPASTPRP,0.318

row,Sequence,shrunken log2 fold change
1,RRIRPRPPRLPRPRPRPCGLPRP,0.148
2,RRIRLRPPRLPRPRPRPASCPRP,0.117
3,RRIRMRPPRLPRPRPRPWSIPRP,-0.0237
4,RRIRMRPPRLPRPRPRPPYLPRP,0.204
5,RRIRERPPRLPRPRPRPAQIPRP,-0.0282
6,RRIRPRPPRLPRPRPRPVTFPRP,-0.186
7,RRIRMRPPRLPRPRPRPAFEPRP,0.763
8,RRIRSRPPRLPRPRPRPVLNPRP,-0.169
9,RRIRMRPPRLPRPRPRPYCAPRP,-0.515
10,RRIRRRPPRLPRPRPRPLQSPRP,0.242
11,RRIRFRPPRLPRPRPRPFCFPRP,-0.343
12,RRIRNRPPRLPRPRPRPQATPRP,0.991
13,RRIRHRPPRLPRPRPRPWLGPRP,-0.0973
14,RRIRQRPPRLPRPRPRPYRSPRP,-0.0119
15,RRIRTRPPRLPRPRPRPYQDPRP,-0.0173
16,RRIRWRPPRLPRPRPRPSWTPRP,-0.0457
17,RRIRHRPPRLPRPRPRPNREPRP,-0.107
18,RRIRTRPPRLPRPRPRPDKDPRP,-0.0511
19,RRIRTRPPRLPRPRPRPLHWPRP,0.111
20,RRIRCRPPRLPRPRPRPFMIPRP,-0.259
21,RRIRQRPPRLPRPRPRPSVGPRP,0.119
22,RRIRARPPRLPRPRPRPSDKPRP,-0.197
23,RRIRRRPPRLPRPRPRPRDCPRP,0.177
24,RRIRIRPPRLPRPRPRPTSAPRP,0.065
25,RRIRERPPRLPRPRPRPHNYPRP,-0.612
